Laboratory results reported in the supplement of paper PMC7877785.
± gives the uncertainty stated by the source.

Test: self-splicing fitness, log relative to wild type (ln ratio); higher = more splicing; Tetrahymena group I intron in knt gene, E. coli kanamycin selection, DiMSum; sequences stand for … in CUCUCU…GGAGGGAAAAGUUAUCAGGCAUGCACCUGGUAGCUAGUCUUUAAACCAAUAGAUUGCAUCGGUUUAAAAGGCAAGACCGUCAAAUUGCGGGAAAGGGGUCAACAGCCGUUCAGUACCAAGUCUCAGGGGAAACUUUGAGAUGGCCUUGCAAAGGGUAUGGUAAUAAGCUGACGGACAUGGUCCUAACCACGCAGCCAAGUCCUAAGUCAACAGAUCUUCUGUUGAUAUGGAUGCAGUUCACAGACUAAAUGUCGGUCGGGGAAGAUGUAUUCUUCUCAUAAGAUAUAGUCGGACCUCUCCUUAAUGGGAGCUAGCGGAUGAAGUGAUGCAACACUGGAGCCGCUGGGAACUAAUUUGUAUGCGAAAGUAUAUUGAUUAGUUUUGGAGUACUCGUGGUCG
Summary of the method: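 The eight P1ex-region nucleotides of an intron in the knt kanamycin-resistance gene on pET-22b(+) were all randomised and the library put into E. coli BL21(DE3). Six replicate transformations were grown overnight at 37°C or 30°C on LB agar with or without 25 μg/mL kanamycin, together with 100 μg/mL carbenicillin, 50 μM IPTG and 0.2% rhamnose. Colonies were pooled and amplicon-sequenced on an Illumina HiSeq 2500. Fitness from DiMSum is the error-weighted combination of wild-type-normalised replicate fold changes, kanamycin over none.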

UAUGAGCAAUAUUACGAGAC
self-splicing fitness (ln) (30 °C): -2.85 ± 0.39 | self-splicing fitness (ln) (37 °C): -2.4 ± 0.32

UAUGAGCAAUAUUACGAGAU
self-splicing fitness (ln) (37 °C): -2.19 ± 0.3

UAUGAGCAAUAUUACGAGCU
self-splicing fitness (ln) (30 °C): -2.71 ± 0.2 | self-splicing fitness (ln) (37 °C): -2.09 ± 0.42

UAUGAGCAAUAUUACGAGUU
self-splicing fitness (ln) (30 °C): -3.21 ± 0.17 | self-splicing fitness (ln) (37 °C): -2.57 ± 0.24

UAUGAGCAAUAUUACGAUAG
self-splicing fitness (ln) (30 °C): -2.31 ± 0.35 | self-splicing fitness (ln) (37 °C): -0.767 ± 0.38

UAUGAGCAAUAUUACGAUAU
self-splicing fitness (ln) (30 °C): -3.47 ± 0.26 | self-splicing fitness (ln) (37 °C): -2.02 ± 0.36

UAUGAGCAAUAUUACGAUCG
self-splicing fitness (ln) (30 °C): -1.79 ± 0.12 | self-splicing fitness (ln) (37 °C): -0.568 ± 0.12

UAUGAGCAAUAUUACGAUGG
self-splicing fitness (ln) (30 °C): -3.59 ± 0.29 | self-splicing fitness (ln) (37 °C): -0.796 ± 0.23

UAUGAGCAAUAUUACGCAUG
self-splicing fitness (ln) (30 °C): -2.53 ± 0.11 | self-splicing fitness (ln) (37 °C): -1.76 ± 0.15

UAUGAGCAAUAUUACGCCUU
self-splicing fitness (ln) (30 °C): -3.19 ± 0.29 | self-splicing fitness (ln) (37 °C): -2.11 ± 0.34

UAUGAGCAAUAUUACGCGAA
self-splicing fitness (ln) (30 °C): -1.62 ± 0.18 | self-splicing fitness (ln) (37 °C): -0.947 ± 0.32

UAUGAGCAAUAUUACGGCAC
self-splicing fitness (ln) (30 °C): -2.09 ± 0.28

UAUGAGCAAUAUUACGGCUU
self-splicing fitness (ln) (37 °C): -1.62 ± 0.32

UAUGAGCAAUAUUACGGUCA
self-splicing fitness (ln) (30 °C): -2.22 ± 0.25 | self-splicing fitness (ln) (37 °C): -1.65 ± 0.25

UAUGAGCAAUAUUACGUCAG
self-splicing fitness (ln) (30 °C): -2.82 ± 0.14 | self-splicing fitness (ln) (37 °C): -2.51 ± 0.2

UAUGAGCAAUAUUACGUCCU
self-splicing fitness (ln) (30 °C): -2.35 ± 0.23 | self-splicing fitness (ln) (37 °C): -2.19 ± 0.49

UAUGAGCAAUAUUACGUCGG
self-splicing fitness (ln) (30 °C): -2.86 ± 0.23 | self-splicing fitness (ln) (37 °C): -2.18 ± 0.2

UAUGAGCAAUAUUACGUCUA
self-splicing fitness (ln) (30 °C): -0.497 ± 0.1 | self-splicing fitness (ln) (37 °C): -0.408 ± 0.13

UAUGAGCAAUAUUACGUGCU
self-splicing fitness (ln) (30 °C): -3.7 ± 0.32 | self-splicing fitness (ln) (37 °C): -2.39 ± 0.34

UAUGAGCAAUAUUACGUUGA
self-splicing fitness (ln) (30 °C): -2.96 ± 0.26 | self-splicing fitness (ln) (37 °C): -1.25 ± 0.17

UAUGAGCAAUAUUACGUUUA
self-splicing fitness (ln) (30 °C): -2.59 ± 0.24 | self-splicing fitness (ln) (37 °C): -1.94 ± 0.14

UAUGAGCAAUAUUACGUUUC
self-splicing fitness (ln) (30 °C): -3.66 ± 0.4 | self-splicing fitness (ln) (37 °C): -1.67 ± 0.32

UAUUAGCAAUAUUACGACAC
self-splicing fitness (ln) (30 °C): -1.54 ± 0.14 | self-splicing fitness (ln) (37 °C): -1.92 ± 0.21

UAUUAGCAAUAUUACGCACC
self-splicing fitness (ln) (30 °C): -2.77 ± 0.26 | self-splicing fitness (ln) (37 °C): -0.337 ± 0.2

UAUUAGCAAUAUUACGCCUA
self-splicing fitness (ln) (30 °C): -0.107 ± 0.15 | self-splicing fitness (ln) (37 °C): -0.038 ± 0.14

UAUUAGCAAUAUUACGGAAG
self-splicing fitness (ln) (30 °C): -2.63 ± 0.31 | self-splicing fitness (ln) (37 °C): -1.9 ± 0.25

UAUUAGCAAUAUUACGGAUG
self-splicing fitness (ln) (30 °C): -0.629 ± 0.09 | self-splicing fitness (ln) (37 °C): -0.294 ± 0.12

UAUUAGCAAUAUUACGGCUA
self-splicing fitness (ln) (30 °C): -0.404 ± 0.15 | self-splicing fitness (ln) (37 °C): 0.399 ± 0.14

UAUUAGCAAUAUUACGGGCC
self-splicing fitness (ln) (30 °C): -2.84 ± 0.42

UAUUAGCAAUAUUACGGGGA
self-splicing fitness (ln) (30 °C): -2.39 ± 0.22 | self-splicing fitness (ln) (37 °C): -0.989 ± 0.18

UAUUAGCAAUAUUACGGUUU
self-splicing fitness (ln) (30 °C): -3.75 ± 0.37 | self-splicing fitness (ln) (37 °C): -2.08 ± 0.2

UAUUAGCAAUAUUACGUAAG
self-splicing fitness (ln) (30 °C): -2.05 ± 0.18 | self-splicing fitness (ln) (37 °C): -1.41 ± 0.25

UAUUAGCAAUAUUACGUCAG
self-splicing fitness (ln) (30 °C): -1.84 ± 0.1 | self-splicing fitness (ln) (37 °C): -0.992 ± 0.12

UAUUAGCAAUAUUACGUCCG
self-splicing fitness (ln) (30 °C): -0.732 ± 0.16 | self-splicing fitness (ln) (37 °C): -0.925 ± 0.19

UAUUAGCAAUAUUACGUCGU
self-splicing fitness (ln) (30 °C): -2.82 ± 0.28 | self-splicing fitness (ln) (37 °C): -3.02 ± 0.32

UAUUAGCAAUAUUACGUCUU
self-splicing fitness (ln) (30 °C): -1.86 ± 0.14 | self-splicing fitness (ln) (37 °C): -0.681 ± 0.15

UCAAAGCAAUAUUACGAACA
self-splicing fitness (ln) (30 °C): -1.41 ± 0.18 | self-splicing fitness (ln) (37 °C): -0.524 ± 0.15

UCAAAGCAAUAUUACGACUU
self-splicing fitness (ln) (30 °C): -4 ± 0.23 | self-splicing fitness (ln) (37 °C): -2.36 ± 0.17

UCAAAGCAAUAUUACGAGGG
self-splicing fitness (ln) (30 °C): -2.11 ± 0.12 | self-splicing fitness (ln) (37 °C): -1.03 ± 0.12

UCAAAGCAAUAUUACGAGUU
self-splicing fitness (ln) (30 °C): -4.25 ± 0.31 | self-splicing fitness (ln) (37 °C): -2.28 ± 0.19

UCAAAGCAAUAUUACGCAGG
self-splicing fitness (ln) (30 °C): -4.07 ± 0.2 | self-splicing fitness (ln) (37 °C): -2.2 ± 0.14

UCAAAGCAAUAUUACGCCCA
self-splicing fitness (ln) (30 °C): -1.32 ± 0.14 | self-splicing fitness (ln) (37 °C): -0.49 ± 0.16

UCAAAGCAAUAUUACGCCGC
self-splicing fitness (ln) (30 °C): -3.89 ± 0.39 | self-splicing fitness (ln) (37 °C): -1.67 ± 0.42

UCAAAGCAAUAUUACGCCGG
self-splicing fitness (ln) (30 °C): -0.974 ± 0.13 | self-splicing fitness (ln) (37 °C): 0.015 ± 0.15

UCAAAGCAAUAUUACGCGUA
self-splicing fitness (ln) (30 °C): -0.554 ± 0.1 | self-splicing fitness (ln) (37 °C): -0.355 ± 0.099

UCAAAGCAAUAUUACGCUCC
self-splicing fitness (ln) (37 °C): -2.37 ± 0.48

UCAAAGCAAUAUUACGGAAG
self-splicing fitness (ln) (30 °C): -2.03 ± 0.17 | self-splicing fitness (ln) (37 °C): -2.38 ± 0.28

UCAAAGCAAUAUUACGGACG
self-splicing fitness (ln) (30 °C): -1.16 ± 0.079 | self-splicing fitness (ln) (37 °C): -0.282 ± 0.1

UCAAAGCAAUAUUACGGCAG
self-splicing fitness (ln) (30 °C): -1.24 ± 0.12 | self-splicing fitness (ln) (37 °C): 0.177 ± 0.16
